Measured values: the Immune Epitope Database (IEDB)

Target: HLA-A*02:01
Assay: IEDB peptide-MHC binding, purified MHC/competitive/radioactivity; ≥ and ≤ were set here for values at or beyond the usual limits of such assays
Details: source organism: Homo sapiens

Sequence	IC50 [µM]
FLPWHRLFL	0.112
FLLRWEQEI	0.0256
YAIDLPVSV	0.0156
NMVPFFPPV	0.0039
VVMGTLVAL	0.0667
RIWSWLLGA	0.1
LLAGLVSLL	0.0952
FLPWHRLFLL	0.205
ALLAGLVSL	0.0763
VMGTLVALV	0.0278
VLTALLAGL	0.082
FLRNQPLTFA	0.139
HLAVIGALL	0.106
WLLGAAMVGA	0.0321
YVITTQHWL	0.104
RLLGSLNST	0.167
RLMKQDFSV	0.0463
SVMDPLIYA	0.0833
SLDDYNHLV	0.0263
FLCWGPFFL	0.0385
AVIGALLAV	0.0179
SLHNLVHSFL	0.263
